From publication PMC13458692

Biological target: Biotinylated MR1-β2m-5-OP-RU (UniProt Q95460)
Assay: SPR

Sequence of UniProt Q95460 (Q95460 23-302, chain 1 of 2): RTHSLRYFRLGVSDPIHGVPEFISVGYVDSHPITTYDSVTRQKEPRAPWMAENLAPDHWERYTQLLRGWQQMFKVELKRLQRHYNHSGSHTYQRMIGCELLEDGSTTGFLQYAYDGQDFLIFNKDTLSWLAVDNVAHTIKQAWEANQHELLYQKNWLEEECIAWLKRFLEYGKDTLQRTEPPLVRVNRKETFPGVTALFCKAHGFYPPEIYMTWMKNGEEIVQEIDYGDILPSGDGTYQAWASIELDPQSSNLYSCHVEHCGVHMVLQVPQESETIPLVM
Sequence of UniProt Q95460 (P61769 21-119, chain 2 of 2, further chain): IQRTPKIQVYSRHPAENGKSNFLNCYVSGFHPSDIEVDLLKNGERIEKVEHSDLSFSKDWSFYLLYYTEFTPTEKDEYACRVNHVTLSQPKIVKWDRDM

Substance: A-F7 (TRAV1-2/TRBV6-1) adult MAIT TCR, soluble
- Kd: 1920 nM
